The values below come from patent US20140112929A1.

In the experiment the target is TNFR1 on human umbilical vein endothelial cells (HUVEC) (human) (UniProt P19438).
UniProt P19438, sequence (P19438 30-455): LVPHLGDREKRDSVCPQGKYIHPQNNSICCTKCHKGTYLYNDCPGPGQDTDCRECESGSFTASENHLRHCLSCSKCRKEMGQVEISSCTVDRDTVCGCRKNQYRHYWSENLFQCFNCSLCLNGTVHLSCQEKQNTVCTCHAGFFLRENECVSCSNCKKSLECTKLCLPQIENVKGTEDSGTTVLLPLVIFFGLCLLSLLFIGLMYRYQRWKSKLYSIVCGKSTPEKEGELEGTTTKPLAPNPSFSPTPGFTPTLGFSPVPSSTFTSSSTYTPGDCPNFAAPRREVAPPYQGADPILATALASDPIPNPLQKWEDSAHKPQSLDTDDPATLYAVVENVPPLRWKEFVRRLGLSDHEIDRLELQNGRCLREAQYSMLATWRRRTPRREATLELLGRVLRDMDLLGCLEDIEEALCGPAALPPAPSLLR

DOM1h-131-206, sequence (VH): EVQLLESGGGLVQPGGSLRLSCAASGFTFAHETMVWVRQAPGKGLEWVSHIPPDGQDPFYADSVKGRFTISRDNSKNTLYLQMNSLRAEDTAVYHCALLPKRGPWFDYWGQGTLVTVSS

Regarding DOM1h-131-206, the IC50 (read off the curve) [b] was 0.5 nM.
